# Molecular target: HER2 receptor (human (endogenous in SKBR3)) (UniProt P04626)
# Assay: BLI
substance,measurement,value
Thiomab Tras-LC-V205C,Kd,1 nM

# Reference: article PMC8972253
